Holding throughout (assay): SEC
Background: SEC sorts molecules by how far they enter the pores of the column.

In assay [1] the target is human CYP11A1 (side-chain cleavage enzyme), N-terminally truncated and modified, C-terminally His-tagged (human) (UniProt P05108).
The target of assay [2] is human CYP11B1 (11β-hydroxylase), N-terminally truncated and modified, C-terminally His-tagged (human) (UniProt P15538).
Assay [3] addresses human CYP11B2 (aldosterone generating enzyme), N-terminally truncated and modified, C-terminally His-tagged (human) (UniProt P19099).

Among the data in article PMC10787587 are stoichiometry N values, retold here.

Usually stoichiometry N stands for a count of units in the complex or per binding partner. In turn, “human CYP11A1 (side-chain cleavage enzyme), N-terminally truncated and modified, C-terminally His-tagged (from UniProt P05108 40-521)” registered a stoichiometry N in assay [1] of 4. Consider “human CYP11B1 (11β-hydroxylase), N-terminally truncated and modified, C-terminally His-tagged (from UniProt P15538 25-503) (enzyme)”, for which the stoichiometry N in assay [2] was determined as 4. For the substance “human CYP11B2 (aldosterone generating enzyme), N-terminally truncated and modified, C-terminally His-tagged (from UniProt P19099 25-503)”, in assay [3], the stoichiometry N was found to be 4.
